{
  "source": "patent US7824885B2",
  "about": "“Engineered proteases for affinity purification and processing of fusion proteins” (University of Maryland, College Park, priority 2003, dated 2010)",
  "target": "S160 (Bacillus amyloliquefaciens, UniProt P00782, DEL180-188/E263S/G190A/G235S/G273S/G276A/I138L/K150N/M157F/N319G/N325S/Q313C/Q378E/S116A/S295P/T361A/Y211A/Y324L)",
  "sequence (P00782 other isoform, or with tags, fused parts or gaps with the stated changes)": "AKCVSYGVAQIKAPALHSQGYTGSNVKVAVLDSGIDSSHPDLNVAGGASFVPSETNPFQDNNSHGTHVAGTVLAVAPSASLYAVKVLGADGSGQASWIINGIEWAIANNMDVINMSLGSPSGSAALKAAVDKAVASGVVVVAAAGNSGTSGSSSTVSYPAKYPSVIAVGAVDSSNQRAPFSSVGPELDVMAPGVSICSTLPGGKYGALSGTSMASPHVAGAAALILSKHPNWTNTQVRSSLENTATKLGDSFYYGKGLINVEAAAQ",
  "assay": "inhibition of S160 by prodomain pR58",
  "format": "biochemical",
  "data": [
    {"molecule": "pR58: version of pR8 with its last four amino acids (AHAY) replaced with FRAM (protein, pR58 (pR8FRAM) variant of SEQ ID NO 2, version of pR8 with its last four amino acids (AHAY) replaced with FRAM) AGKSNGEKKYIVGFKSGIKSCAKKQDVISEKGGKLQKCFKYVDAASATLNEKAVKELKKDPSVAYVEEDKVFRAM", "values": [
      {"measurement": "Ki", "value": "~30", "unit": "pM"}
    ]}
  ]
}
